Data reported in US20260102528A1 (University of California, published 2026).
Values belong to the binder of their own block, whether it stands above or below them.

Assays:
[1] = molecular target: T1, V7-ARS1620 HLA-A*03:01 MHC-I complex (human); assay: competition ELISA: the concentration is that of free ARS1620 (small molecule, the varied competitor); read-out is P2B2 IgG-HRP binding to W6/32-captured A*03:01/V7-ARS
T1 construct: also called V7-ARS HLA-A*03:01; V7-ARS A*03:01
Experimental: The complexes were captured by the conformation-specific antibody W6/32 and detected by the ARS1620-specific antibody (P1A4) in the presence of various amounts of free ARS1620. Data is presented as mean±standard deviation for four replicates.
MHC-I refolding and purification. […] Refolding reactions were performed with various peptides of interest in refolding buffer (100 mM Tris pH 8.0, 400 mM L-Arginine.HCl, 5 mM reduced glutathione, 0.5 mM oxidized glutathione, 2 mM EDTA, and complete protease inhibitor cocktail (Roche)). Briefly, B2m (2 μM) and peptide (10 μM) were diluted into refolding buffer, then denatured heavy chain was added to 1 μM. Reactions proceeded at 10° C. overnight for ELISA assays. MHC-I ELISAs. Black, 384 well Nunc Maxisorp plates were coated with 50 μL of the anti-heavy chain antibody W6/32 (Bio X Cell Cat #BE0079, RRID:AB_1107730) at 5 μg/mL in PBS overnight. The plate was washed twice with PBS (100 μL) and blocked with 3% BSA PBS (120 μL) for 1 hour at room temperature. Plates were then washed three times with 0.05% Tween-20 PBS (PBST) (100 μL). Refolded MHC complexes (crude or FPLC purified) were diluted 10× into 1% BSA PBS and 50 μL added to wells in quadruplicate. Plates were incubated at room temperature with shaking for 1 hour, then washed three times with 1% BSA PBS (100 μL).

[2] = molecular target: T1, V7-ARS1620 HLA-A*03:01 MHC-I complex; assay: BLI (Octet), Fab on immobilised biotinylated pMHC
Experimental: (§1) Kinetic measurements via Octet. Kinetic constants for Fabs were determined using an Octet RED384 instrument (ForteBio). For screens, a single concentration of Fab (100 nM) was tested, and for kinetic characterization Fabs were tested at several concentrations, as noted in the relevant figure. Biotinylated peptides (1 μM in 1% BSA/PBS) or biotinylated MHC-I complexes (200 nM in 1% BSA/PBS) were immobilized on ForteBio streptavidin SA biosensors for all assays. All measurements were performed in 1% BSA PBS pH 7.4 in 384 well plates. Data were analyzed using a 1:1 interaction model with global fitting on the ForteBio data analysis software (9.0.0.6). KD values were determined by the fitting of either equilibrium or maximum response (nm) as a function of Fab concentration.

[3] = molecular target: T2, K5-ARS1620 HLA-A*02:01 MHC-I complex (human); assay: BLI (Octet), Fab on immobilised biotinylated pMHC
T2 construct: also called K5-ARS HLA-A*02:01
Experimental: as §1

[4] = molecular target: T3, V7-AMG510 HLA-A*03:01 MHC-I complex (human); assay: competition ELISA: the concentration is that of free AMG510 (small molecule, the varied competitor) preincubated with the Fab; read-out is Fab binding to streptavidin-captured V7-AMG510 HLA-A*03:01, anti-myc IgG-HRP; legend calls the values approximate
T3 construct: also called V7-Sotorasib A*03:01; V7-510 A*03:01
Experimental: FIG. 3A-3D show characterizations of six V7-AMG510 A*03:01-reactive Fabs. […] Approximate IC₅₀ values for free drug (AMG510) competition for each clone are reported, as derived from FIG. 3C. […] Recombinant V7-AMG510 HLA-A*03:01 was captured via streptavidin in an ELISA and increasing amounts of free AMG510 preincubated with the indicated clones in Fab format before detection of Fab binding with an anti-myc secondary IgG-HRP conjugate. Data are presented as the mean #standard deviation of three replicates. […] Data are presented as the mean±standard deviation of four replicates.

[5] = molecular target: T3, V7-AMG510 HLA-A*03:01 MHC-I complex; assay: BLI (Octet), Fab on immobilised biotinylated pMHC
Experimental: as §1

[6] = molecular target: T3, V7-AMG510 HLA-A*03:01 MHC-I complex; assay: BLI, Fab on pMHC
Experimental: as §1

[7] = molecular target: T3, V7-AMG510 HLA-A*03:01 MHC-I complex; assay: BLI (Octet), derived from FIG. 3A; biotinylated MHC-I complex on streptavidin biosensor
Experimental: as §1

B3: P1C10 Fab (Fab, V domains shown)
VH: QVQLVQSGGGLVKPGGSLRLSCAASGFTFSSYSMNWVRQAPGKGLEWVSYISSRGRTIYYADSVKGRFTISRDNAKNSLYLQMNSLRAEDTAVYYCVRDVPGVWGFAYWGQGTLVTVSS
VL: QSVVTQPPSVSAAPGQKVTISCSGSSSNIGNHYVSWYQQLPGTAPKLLIYDDGKRPSGIPDRFSGSKSGTSATLGITGLQTGDEADYYCATWDNSLSVVLFGGGTKLTVLG
Kd [2]: 59 nM
Kd [3]: 320 nM

B5: P1B7 Fab (Fab, V domains shown)
VH: QVQLQQSGPGLVKPSQTLSLTCAISGDSVSSNSVAWNWIRQSPSRGLEWLGRTYYRSKWYSDYAVSVKSRITINPDTSKNQFSLQLTSMTPEDTAVYYCAREGVTMGPGAFDIWGQGTMVTVSS
VL: QSALTQPPSVSGSPGQSVTISCTGSSSDVGHYNRVSWYQQSPGTAPKLMIYDVSNRPSGAFSRFSGSRSGNTASLTISGLQPEDEADYYCSSHRTGYTVEVFGTGTKVTVLG
Kd [6]: 15 nM

B7: P1H4 Fab (Fab, V domains shown)
VH: EVQLVQSGAEVKKPGSSVKVSCKASGGTFSSYAISWVRQAPGQGLEWMGGIIPIFGTANYAQKFQGRVTITADKSTSTAYMELSSLRSEDTAVYYCAFNYYDSSGYSDYWGQGTLVTVSS
VL: ETTLTQSPGTLSLSPGERATLSCRASQSVSSSYLAWYQQKPGQAPRLLIYGASSRATGIPDRFSGSGSGTDFTLTISRLEPGDFAVYYCQQYGTSPITFGQGTRLEIKR
AMG510 IC50 [4]: ~930 nM
Kd [7]: 59 nM

B9: P1E5 Fab (Fab, V domains shown)
VH: QVQLQESGGGVVQPGRSLRLSCAASGFTFSSYEMNWVRQAPGKGLEWVAVISYDGSNKYYADSVKGRFTISRDNSKNTLYLQMNSLRAEDTAVYYCARDAYSGWFDYWGQGTLVTVSS
VL: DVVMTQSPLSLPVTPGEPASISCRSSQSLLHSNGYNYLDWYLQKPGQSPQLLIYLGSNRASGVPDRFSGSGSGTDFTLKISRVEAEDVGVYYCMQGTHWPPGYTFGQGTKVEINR
AMG510 IC50 [4]: ~200 nM
Kd [5]: 13 nM

The remaining lines, values ahead:

IC50 of free ARS1620 [1]: 445 nM
B1: P2B2 IgG-HRP conjugate (antibody, V domains shown)
VH: QVQLVESGGGVVQPGRYLRLSCATSGFTFSNYAMHWVRQAPGKGLEWVALISYDGSNKYYADSVKGRFTISRDKSTNALYLQMNSLRVEDTAVYYCARERVPWDYYGMDVWGQGTTVTVSS
VL: QSVVTQPPSVSAAPGHKVSISCSGSNSNIGHNYVSWYQQFPGTAPKLLVYRDDNRPSEVPDRFSGSKSGTSATLGITGLQTADEADYYCGTWDSTLQHVVFGGGTKLTVL
notes: also called V7-ARS-HLA-A*03:01-specific antibody P2B2

Kd [2]: 43 nM
Kd [3]: 470 nM
B2: P2B2 Fab (Fab, V domains shown)
VH: QVQLVESGGGVVQPGRYLRLSCATSGFTFSNYAMHWVRQAPGKGLEWVALISYDGSNKYYADSVKGRFTISRDKSTNALYLQMNSLRVEDTAVYYCARERVPWDYYGMDVWGQGTTVTVSS
VL: QSVVTQPPSVSAAPGHKVSISCSGSNSNIGHNYVSWYQQFPGTAPKLLVYRDDNRPSEVPDRFSGSKSGTSATLGITGLQTADEADYYCGTWDSTLQHVVFGGGTKLTVLS
notes: also called P282

AMG510 IC50 [4]: ~1500 nM
Kd [5]: 230 nM
B4: P2C1 Fab (Fab, V domains shown)
VH: EVQLVQSGAEVKKPGSSVKVSCKASGGTFSSYAISWVRQAPGQGLEWMGIINPSGGSTSYAQKFQGRVTMTRDTSTSTVYMELSSLRSEDTAVYYCARDLGTIFEANGAFDIWGQGTMVTVSS
VL: QSALTQPASVSGSPGQSITISCTGTSSDVGSYNLVSWYQQHPGKAPKLMIYDVSNRPSGVSNRFSGSKSGNTASLTISGLQAEDEADYYCSSYTSSSTLVFGTGTNVTVLG

AMG510 IC50 [4]: ~74 nM
Kd [7]: 29 nM
B6: P2B6 Fab (Fab, V domains shown)
VH: QLQLQESGPGLVKPSETLSLTCTVSGVSISSRSDHWGWVRQPPGKGLEWIGSISYSGSTYYNPSLKSRVTISVDTSKNQLSLKLTSVTAADTAVYYCARRALAQQLVMDVWGQGTTVTVSS
VL: DVVMTQSPLSLPVTPGEPASISCRSSQSLLRNNGYNYLDWYLQKPGQSPQLLIYLGSNRASGVPDRFSGSGSGRDFTLKISRVEAEDVGIYYCMQGAHWPYTFGQGTNLEISR

Kd [7]: 68 nM
B8: P2E3 Fab (Fab, V domains shown)
VH: QVQLQESGPGLVKPSETLSLTCTVSGGSVSSSSYYWGWIRQPPGEGLEWIGSIYYSGSTYYNPSLKSRVTISVDTSKNQFSLKLSSVTAADTAVYYCATRLRGSFDYWGQGTLVTVSS
VL: DVVMTQSPLSLPVTPGEAASISCRSSQSLLHSNGYTYLDWYLQKPGQSPRLLIYSGSNRASGVPDRFSGSGSGTDFTLKISRVEAEDVGVYYCMQGTHWPYTFGQGTRLEIKR
